Experiment: soluble fraction after stress (log2 fold change); higher = more stays soluble; pooled small domains, quantitative proteomics
Settings: stress: 75 degC
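Also: 20 min heating vs room temperature control held 20 min.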

Sequence | soluble fraction (log2)
HMEEIDLTPAEEILNKLPDNSRGYLIPTLNKIQNAYRFLPDPAMELLMEFFNVSRAEIFGVISFYPQLMI | -0.127
HMEEIPYGVISAKAGAAAYDYIKKSIELGIEKKIDGVATAPIQKEAIHMAGISYIGHTEMYQGIT | 0.178
HMEEKEIGQTLSVKIRENVLSKLDMTRDLEDEEVKHIIEHEIWLAAKKHYISLEERNSIKRGIFNSL | -0.895
HMEELELTIDGEMVGRIDKQLGHHFDQFSRSQIQHWIEDGHVLVNGKQVKPKYKLLVGDHVQIIPEEPQK | 0.261
HMEELIIQEELANKRLDIAISLLFPELTRAHAQKLIKEGSVLVDGKPRKASYPLTAGKRLSVTLPEPE | -0.172
HMEELPVLHLKHVVVEGESLWKLAEQYLNDGTRWQEIYMLNRENISNPDLIREGQELNIQFLQGE | -0.382
HMEENIKKDIEVPNIEGLTIDEAKKRLKEVNLNISIEDMEEKEGTEIITQQLPKAGIKVKEGVAIIAY | 0.227
HMEEPEFEPYVVRLTAIALNVRTGPGTQYPVAMVIRGGGAFTIVAEENGFGLLKSGAGWIMLQHTERV | -2.61
HMEEQELQLIQFPIASGSAWAGKAVRELILPPETLLVMLIRGTETMIPKGDTMVQEGDTAVLSASAYRDD | -0.472
HMEEQKYEYHLGDVVYLGVDKYEILGITNNIVTLYDPEFPLLNKQLDFDEFEKRVKDNYANEHLKVT | -0.324
HMEERDMKGSISDLVERYADQLTDEQLEEIVLGIKNGLLEEDVKSYFFLPAEDMRRIRTALEQVR | 0.0219
HMEESEMIAFATVAHRIVGKPVEAVMRSYRNRDNIPADIAAIVSSKFTFSVTMAEASYRNPKKSYQVNSII | 0.275
HMEETLLLRESVRSALAMLAPTLRITLEMYVYRQLSPTEIALRSGVSISMVRRRLGYGLYKLRTQLIDA | -0.121
HMEFEIGQEDSKKSVKQFLYNTLRLSHGQVTALKRQERGILLNGERVFVTALLQEGDRLSLLLE | -1.7
HMEFFIIDHNGQQAGPFSFDQLVQKGISPETLVWKQGMADWNPAWKVEELKAVLEAVEANQSNQKAQ | ≥ 1.04
HMEFGEVLAQLRQKRHISQAELGRAIFVSGGTISNYEKGVHFPDVEKLLLLADYFNVTTDYLLGRT | -2.65
HMEFNQAVQDVNELSMQYAKSDVLWPEFEPKVLAFAKNELSQMPPNQWKFALQTFYNGLKQAA | -0.576
HMEFPLSPHQYSVLRLMAQGLSNKQIAERLFLSENTVKGYVQEVLRRLGARNRLEAVMIANRRGWL | -0.316
HMEFPYISGVDVGTISNKEFARFETTKASDIVIALDKSGIPFSARFGDSEIVLTYDGSYKEEVEEIIAKV | 0.172
HMEFSYMDQGLERYRAFLETHGHGNVPESYHELKLVNFVAHIRKLYRMNLLSEERRRALDEAGFVF | -2.5
HMEFVEERRNRMLDYIGENKRADVPELARHFDVTEVTIRRDLLILEQDGKLIRTHGGAMINR | -0.536
HMEGDKEIPNVIGKSINDAKKILEQAGLKLGEVKKVNDSSVAKNVVLSTNPNAGTKVSAGDAVSITVAEG | 0.106
HMEGGLIMDRIEKGLQSGVMPDLRGLNLKDALYLLESYVQVQVIGSGGVIKQSIKTGDKFIMGSVIKLEL | -0.138
HMEGLATRLRFLRQARGLSYHALARLSGVTHTALHQIEAGKNIPGLDTAEKIAMALDVDPRWFAYGRGDPS | -3.18

Sequence | soluble fraction (log2)
HMEGPALKVWKARYLRAAILEQLLSDRWDDRGGQPIRVVVNEPTNSLLIRIPRHLWPEAEKLLQELDQR | -2.34
HMEGTEILVNIRKGMTKEEIASLLVSKGLVEDKNTFLVQTALYTSDRYPIQPGSYTLNTAQTPEEMLAVMT | -0.0935
HMEGVNLTVQEAKQMAAIIAPLLKQGQSPYQIVTNHPELGISEKTLYNYIENDVFHEIAGITVMDL | -0.819
HMEHIVNELDRKVIDYLQSHYDAKLNDIAQGIGVSKATATKSIRKLVQTGIVHVVGSSGTGTSYNLTE | -0.465
HMEHVVFEVTESGELENNTAVKHVLNSFNNKSLNLAIDDFGTGYSNLRYIRDMMFGIIKIDRLFIKDINES | 0.324
HMEIDFDKINSIFNDANKLYEEGDYFEANNLYKNIVSSNIISKDLYYNLGLSYAKIGSNGYAILWYERALN | -0.0259
HMEIEEIDYGTFLQMVEDGVVEKIELTDTQIFLTSTVDNDDKVYTTGVMPDQDLTNRLIEAGVVNFGKVV | 0.134
HMEIFSIEPDSYLGSGEEIASYYREGVTVIVNMAKLSDAESLRMVDFMSGLKLALLGNIKRITKHVYLLTP | -0.0777
HMEIITIVSDINGKRIDAWLSEKLENYSRSFIQKLIQNENVKVNNNIVKANYKLKNGDAVAVSIPEPV | 0.179
HMEILNYVVSDGQSGIRIDRYLSDSNEDLSRSYIQKLLKEQKVTVQGTFVKANYKVQAGDVITVEVPDMA | -0.884
HMEILPAYRDIKKEALLGNINAEFKYVNLLLEHNYIEQAFNIIEDMKTRVDDNPEFEELKSRVADAYLMY | -1.56
HMEILTLEELKRLMAKAKLKQNQISGHAGVSKQQISMILAGKRNITKDVSDNLKANLAEYFP | -0.651
HMEILVSTRRHEIASLLSRKKRVSFFELFPEKTKEYVVATFLAILEMAKAREVNITQEDTFDEIIVEEA | -2.18
HMEIPTPAELREKRIRMGLKQADVARMAGISQSMVARIESGSVDPRVSTLAKIVEVLQAAER | -0.488
HMEISLEAKMAEVREQVRGLAGINFRTLLEMQASRSNIIVTFLAILELMKIGAIQIRQEEIFGEIIIDSRD | -0.104
HMEISPGDVFKQLPGIGDDLSRRVVESLGIQSLEELESAAHDGRLEQVEGFGERRVQMVRAVLTGMLS | -0.00517
HMEITTEDIAAQVASWIVRLSEDLTSTDRAALQIEFEQWQQTDSRRAEIAHKMLSLIGQAEQLRKT | -0.712
HMEKAISSLTLEEAKKRLEMVRSEKDASLQIYKETGSETARVTAENYGKEENSLLLHISEMSNIV | 0.425
HMEKFTGELSQEEKNVLDALSHEEMHVDIIIKLTKLETSAVSSTLSLLEIKGLIKNIGGQNYIK | 0.543
HMEKIIFEISEEGKRLDLYIAERTELTRTRIQQLIKDGNINVNNKKSKPSYKVEKNDFIEMIIPDE | -1.23
HMEKINLIIEEDNNLRLDKVIAMQLQELSRTQIQDMINQGLVLVNQKKEKASYKTKLNDEIEITILD | -1.13
HMEKKDTYTVKNGDSLWGIARTELGDGGRFREIYTLNADTIEAEAKKRGRSSSSEGHWIYPGSVLRLP | 0.304
HMEKKGTVVIATVKGDIHDIGKNIVKVLLENYGFDVIDLGKDVPPEAVVEAVQQSGARLVGLSALM | -0.898
HMEKKSKLVLAVLQGSDSDNTIRNLNERGFMVTVLSSTGGFLKKKSTTVMIGVEEDRLEEALDVLQKYAG | -0.549

Sequence | soluble fraction (log2)
HMEKKTILIPPVITVRALAEISQIPVNRLLQELIKNGVFTSINEKIDFDTAVIIGADLNLDIQLL | -1.86
HMEKLPRYILPGVPKVKSINISSALDGLVQDYSREFNISQKDIFQIALVEFFKKYGYHNAVKAVL | -2.29
HMEKLSMLKIKELFRLAIEMNLSHRQIAQSLNVSHTVVNRYLKRFKKSNLSYETLLKLGDKEIISALYEH | -3.67
HMEKPAQDVLASHREWMGEMIKAEHMTAKQVWRLLRERADIGVSYPTVKRYLRAHFQFGGPS | -1.57
HMEKRLDYTFGLNKEQLLYLTKSIKDGDFYNVSFIDGTEKKLNRVGSTKEVHKYVNFLMTNDGIVKK | -0.389
HMEKSLKELAQGVGQKVLTSGRPYHFDPMSAMERRVVHMTLMEMDGLRTESEGEGRFRHVVVFPA | -0.0884
HMEKTEQMQVILDYIARYGEINNEKVQEILGVKRTRAYTILKQMVENGFVTTNGRGEEKKYYSIR | -1.25
HMEKTIQIYDNIIIKDFAEKMEVSPSQVITKLIGLGVMANLNQPIDINSAVIVGKEFGFNVESM | -1.29
HMEKVLPFEFERKFKTNHTAWDFFSNQAPPSYRKTVIHWILSAKQEITRISRLEKLIAASEQQKRI | -0.518
HMEKYIVNQEEQGKRLDIYVVNKSSELTRTAVQRLIEQEHILVNGRKQKASYKVLEGDIITIERV | 0.753
HMEKYTDDLEIAAEIARLETLMEGNGRVLIRPSGTEPLVRVMIEGNDIEQITKLAEDLAALLNKRF | -0.717
HMELDFNSVYRQLNHEQKQAYQSIKSVLEQKISGSELDKKLKQAQQAFVAKFKENPNFEVPK | 0.608
HMELDIGKKAIVIEKIDPEAGTGRVRIEGVDWGAKTADSSVIEKGETVVVKAKGAAFVTVAK | 0.0983
HMELEAFPNPTDMFLSFTTKEKTPLAIYDINGKQVLYVEQITSSSKINVSKLSEGVYFAKTNQGTVKWVK | -2.35
HMELEQLKSQLTGFLKANREQIFTAQNLADGLRMTDSQGYKQVVNALNASVRDGDVIDIKNGYQYNKN | 0.0444
HMELEWENYSLAGEIKTTVMLYQNRRNGLPEEAKQKADALMKQLKQAVIENDAQKVEKIDDALTALLFE | -0.564
HMELGYTPNNLRSVRAKYGLTQKQVAEITGLKTWHPVNRWEAPVEAAYHADMPHTKWLKLLDELSSR | -1.45
HMELKYIDYDEALVVYAKTVTASGGGLSGVKDEGGIRKVLDFVQNDLYYPTFVDKLTYLVFGL | 0.168
HMELLPAERRQQLVDWFKSNQAGTSQDLARMFGISVSTIRRDLDLLASEGLVKRTHGGAVSIR | -0.055
HMELLPFEFARANRVLLRVNESDLVVSPDANHSAVTEILRLNNNIETIKSVDAEAFDKILSSIYSG | -0.804
HMELLSVPSRLGTFFLGGEAGHIIRLYLPGDPTPRIAEHETPVLSEARRQLLEYLAGRRTAFSFPL | -0.0691
HMELNEIEFENLKESIIIHLEKESLSPHELVKHIQTIHPDKVTAVIQWMLENGFIKTDAGGQLTLVSK | 0.199
